The Km is the substrate concentration at which the rate is half of its maximum. The term kcat denotes the number of substrate molecules converted per active site and unit of time at saturation. A word on the kcat/Km: it is the second-order rate constant that governs catalysis at low substrate concentration. In general, stoichiometry N refers to the number of molecules, sites or subunits per partner or assembly.

Consider two proteins from paper PMC3316156 (Biochemical Journal, 2012).

Substrate in series [1]: N[C@@H](CCS)C(=O)O
The series can be described thus: cystathionine production by LC-MS/MS, non-linear fit. The class given is biochemical, Caenorhabditis elegans. As to conditions: co-substrate serine, 100 mM Bis/Tris pH 8.0, 25 °C.

Substrate in series [2]: N[C@@H](CO)C(=O)O
Described as above. The series is classed as biochemical, Caenorhabditis elegans. As to conditions: co-substrate homocysteine, 100 mM Bis/Tris pH 8.0, 25 °C.

The series “cross-linking” deals with the molecule itself. The series can be described thus: cross-linking.

B1: CBS-1 (Caenorhabditis elegans) (protein)
chain: MIQNEVSATHGSTKKGITYNTILEAAQRPTPLVPLKKLKVEHQLQSDIYVKLEYLNIAGSLEDRTADKAFQFAEEIGVVRGDEVFVTAGGSAAISYATVAAVKGIKLTIYAPKGEFDLVDTVLHTLGVKTVELPFGTFAEARVQTDEAAQQKGVFSLNKFTTNAAFVANLQKTALEIEKAVNNKSIGKVGAVVIPLNTGAAAAGIAAYYKGIGEHGVRVVGVTCKKDTIPEMGLDLKNDLLQEYNVEKREVEEDEAYSFTRHLIGTEGIMAGPSSGAAVLEAIKLAKELPAGSTIVVVLMDGIRNYLRHFLDDDWITANKKDVVTRKDGPQPNSIYDPKVLVYDPTKLAGEWTQDPETKSWSHSEVEFNKFNPERPLVLDTVLDAIGKTPLVKLQHIPKAHGVKCNVYVKCEYMNAGGSTKDRIAKRMVEIAEKTGKPGKLVPGVTLIEPTSGNTGIGLSLASAVRGYKCIITMPKKMSKEKSIAMASLGSTIIRTPNEAGFDSPHSHIGVALRLKSEIQDAVVLDQYCNPGNPLAHYEETAEEIIYDMGDKHIDLVVLTAGTGGTVTGISRKIHERIPTAKVVGVDPHGSILAGPAETDIDFYEVEGIGYDFLPGTLDTSAIDYWAKSHDKESFLMARELIRSEGILCGGSSGCAVHYALEECKSLNLPAEANVVVLLPDGIRNYITKFLDDDWMNERHFLDA
For B1, in series [1], the Km came out at 4.29 ± 0.97 mM, the kcat came out at 43.3 ± 4.33 s⁻¹ and the kcat/Km came to 10000 M⁻¹ s⁻¹. Also, in series [2], the Km worked out at 5.57 ± 0.68 mM, the kcat worked out at 48.1 ± 2.95 s⁻¹ and the kcat/Km is 8500 M⁻¹ s⁻¹.

B2: human 45CBS (C-terminally truncated human cystathionine β-synthase, residues 1-413) (domain or fragment, UniProt P35520 1-413, looked up)
chain: MPSETPQAEVGPTGCPHRSGPHSAKGSLEKGSPEDKEAKEPLWIRPDAPSRCTWQLGRPASESPHHHTAPAKSPKILPDILKKIGDTPMVRINKIGKKFGLKCELLAKCEFFNAGGSVKDRISLRMIEDAERDGTLKPGDTIIEPTSGNTGIGLALAAAVRGYRCIIVMPEKMSSEKVDVLRALGAEIVRTPTNARFDSPESHVGVAWRLKNEIPNSHILDQYRNASNPLAHYDTTADEILQQCDGKLDMLVASVGTGGTITGIARKLKEKCPGCRIIGVDPEGSILAEPEELNQTEQTTYEVEGIGYDFIPTVLDRTVVDKWFKSNDEEAFTFARMLIAQEGLLCGGSAGSTVAVAVKAAQELQEGQRCVVILPDSVRNYMTKFLSDRWMLQKGFLKEEDLTEKKPWWWHLR
As to B2, the “stoichiometry N” value in “cross-linking” was determined as 2.
